According to US20190367903, “OLIGONUCLEOTIDE PROBES AND USES THEREOF” (CARIS SCIENCE, INC., published 2019):

Target: T1, EpCAM (UniProt P16422 P16422:24-265)
T1 sequence: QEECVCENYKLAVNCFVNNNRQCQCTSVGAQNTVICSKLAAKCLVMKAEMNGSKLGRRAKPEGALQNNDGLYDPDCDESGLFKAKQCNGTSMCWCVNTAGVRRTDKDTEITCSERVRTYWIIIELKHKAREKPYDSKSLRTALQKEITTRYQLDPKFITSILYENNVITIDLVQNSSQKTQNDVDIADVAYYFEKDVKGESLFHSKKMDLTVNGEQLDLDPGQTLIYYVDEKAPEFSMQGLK
Assay: stated identified by library screening to recognize EpCAM, no data shown

B1: CAR003 (ssRNA)
RNA: AUCCAGAGUGACGCAGCAGUCUUUUCUGAUGGACACGUGGUGGUCUAGUAUCACUAAGCCACCGUGUCCA
binding result: binds
